Here are results for 17 sequences from the supplement of paper PMC9170038.

This data set deals with MS2 coat protein. Nature of the data set: apparent KD of MS2 coat protein; higher = weaker reporter binding. As to conditions: Eterna round: R107. Summed up:
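Apparent KD stands for the median, per design, of fits to normalised cluster binding curves. The curves came from titrating on-chip-transcribed RNA switches on Illumina sequencing clusters with SNAP-549-labelled MS2 coat protein, twofold from 0.7 or 1.5 nM to 3 µM. Buffer was 100 mM Tris-HCl pH 7.5, 80 mM KCl, 4 mM MgCl2, without or with constant ligand.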

[1] abbreviates: input ligand: theophylline 20 uM.
The mark [2] stands for this setting: input ligand: theophylline 2 mM.
Setting [3] is: input ligand: tryptophan 2.4 mM.

For “CGCACAUGAGGAUCACCCAUGUGAGGGCGUCGAGGACCGGUACGGCCGCCACUCGCAGGACAUGAGGAUCACCCAUGUGCCGCCG [SSTA DOUBLE!!! :-D #4]”, the “apparent KD of MS2 coat protein” value was 39.8 nM (input ligand: arginine 13.2 mM), 131 nM under setting [1] and 145 nM under setting [2].
“CGGUAGGUAGGUCGAUAUCUACCCGUAGAAGGAGCGUAAGAAAAUACAGGUAGGUCGCUACGGAACAUGAGCAUCAGCCAUGUCC [SSArg A #12-Alt Ms2]”: the “apparent KD of MS2 coat protein” value reads like this: (input ligand: arginine 13.2 mM) 13.9 nM; (input ligand: none) 11 nM; under setting [1], 20.6 nM; under setting [2], 12.1 nM; under setting [3], 12.6 nM.
With “CGUACAUGAGGAUCACCCAUGUUACAUGAUACCAGACAUGAAAAUGUCCCUUGGCAGCAUGGCGCUGAUAGGGCGGGAAACCCGA [Zabovresky]”, the “apparent KD of MS2 coat protein” value was 16.6 nM (input ligand: arginine 13.2 mM); 19.2 nM (input ligand: none); 23.2 nM under setting [1]; 28.7 nM under setting [2]; 19.7 nM under setting [3].
Taken in the same sequence, the figures for “CGUAUGUAGACGGCCGCCACUGGAACCUGAGGAUCACCCAGGUACAGGGUGGGUAACUCGAGAGUCAGGACCGGGUCUACAUACA [Tryp B Ex t3]” were 19.4 nM, 42 nM, 65.1 nM, 64.3 nM and 38.6 nM.
For the sequence “CGUGGUGGGACGGAUACCAGCCACCGCGGCAACGCAACAUGAGGAUCACCCAUGUUGGGUGGCCCUUGGCAGCUGUCCUGCGACG [#1 Same State - Theophylline B Attempt #27 (HarryS)]”, the “apparent KD of MS2 coat protein” value (input ligand: arginine 13.2 mM) came out at 11.5 nM; the “apparent KD of MS2 coat protein” value (input ligand: none) amounted to 11.7 nM; the “apparent KD of MS2 coat protein” value under setting [1] was 11.6 nM; the “apparent KD of MS2 coat protein” value under setting [2] was determined as 11.7 nM; the “apparent KD of MS2 coat protein” value under setting [3] was 10.1 nM.
On to “CUAAGAGUAGGAAGGAGCGACAUGAGGAUCACCCAUGUGGCUCUCAUGGCCCGGGUCUUAUGUCAGGUAGGUCGCCUACUGUUUA [Solave]”, for which the “apparent KD of MS2 coat protein” value runs as follows: (input ligand: arginine 13.2 mM) 13.6 nM; (input ligand: none) 14.4 nM; under setting [1], 21.9 nM; under setting [2], 17.1 nM; under setting [3], 14.1 nM.
“CUACAUUUGUAGAAACCGGUCAACAAUAAUCGAGGACCGGUACGGCCGCCACUCGAUGUGAAAUACACAUGAGGAUCACCCAUGU [Tryptophan A 13]”: the “apparent KD of MS2 coat protein” value (input ligand: arginine 13.2 mM) was found to be 15.8 nM, the “apparent KD of MS2 coat protein” value under setting [1] stood at 19.1 nM and the “apparent KD of MS2 coat protein” value under setting [2] was determined as 19.9 nM.
For the sequence “CUAGACUGUGCGGCCGCCACUGGCUCAUCCUGCAUUACAUGAGGAUCACCCAUGUUGCGGCCUCCCAGGACCGGGCAUAGUCUGC [Riinzaa]”, the “apparent KD of MS2 coat protein” value reads like this: (input ligand: arginine 13.2 mM) 91 nM; under setting [1], 474 nM; under setting [2], 734 nM.
Turning to “CUAUAAGUAACUGAUACCAGUGUACUGACAUGAGGAUCACCCAUGUUGGGUUUUGUUGUACACCCUUGGCAGCAGAAUCUUAUAG [AstrosExyTheB#14]”, the “apparent KD of MS2 coat protein” value runs as follows: (input ligand: arginine 13.2 mM) 38.9 nM; (input ligand: none) 63.8 nM; under setting [1], 70.3 nM; under setting [2], 111 nM; under setting [3], 72.5 nM.
Taken in the same sequence, the figures for “CUAUAUAUAAGAAGGAGCGACAUGAGGAUCACCCAUGUCUACCACGUCGAAAGACGCUCAUGUCAGGUAGGUCGCUUAUAUAUAG [Astros-Eli-mod1]” were 108 nM, 122 nM, 155 nM, 139 nM and 93.9 nM.
As to “CUAUAUAUAGCGGCCGCCACUUACUCAUGAGGUAACAACAUGAGGAUCACCCAUGUUUGAGGAUCAAGGACCGGGCUAUAUAUAG [AstrosSSTryB#4]”, the “apparent KD of MS2 coat protein” value turned out to be 28.1 nM (input ligand: arginine 13.2 mM), 33.5 nM under setting [1] and 33.2 nM under setting [2].
Take “CUCCGAGGCUAUACUAUCCGCCUCAGUGAUACCAGAAUACCUAUAUUCCCUUGGCAGCAUCACAUGAGGAUCACCCAUGUGCCAU [SSTheo A #14]”: the “apparent KD of MS2 coat protein” value reads like this: (input ligand: arginine 13.2 mM) 13.4 nM; under setting [1], 16.3 nM; under setting [3], 12.2 nM.
Taken in the same sequence, the figures for “CUCGGAACAAUCGAUACCAGUUCUCAUGGAUUGCAGCAGUACAUGAGGAUCACCCAUGUAAACCCUUGGCAGCGAAGAACAAGAC [theeternabot_exclusion_MS2_Theo_B_18]” were 26 nM, 48.2 nM and 33.4 nM.
For “CUCUCAUGAACAUGAGGAUCACCCAUGUAACGAGGACCGGUACGGCCGCCACUCGAACGUGGAAACCAAUCGAGUGAGGUGGGAG [Tryp A Ex t5b]”, the “apparent KD of MS2 coat protein” value amounted to 45.9 nM (input ligand: arginine 13.2 mM); 116 nM (input ligand: none); 98.4 nM under setting [1]; 119 nM under setting [2]; 352 nM under setting [3].
Consider “CUUACACAUGAGGAUCACCCAUGUCAUGAUACCAGCCAAUACACUGGCCCUUGGCAGCAUCUCAGCCUCAGCUACAUUGACUGAC [theeternabot_sameState_MS2_Theo_A_2]”, for which the “apparent KD of MS2 coat protein” value by setting is: (input ligand: arginine 13.2 mM) 18.9 nM; under setting [1], 28.2 nM; under setting [3], 17.8 nM.
Taken in the same sequence, the figures for “GAAACGUAGGUGGAGCGGUGAAAUGGCGAUACCAGCGUGGAAACACGCCCUUGGCAGCGUUAGAACAUGAGGAUCACCCAUGUUU [#21 Exclusion-TheophyllineA]” were 19.3 nM, 62.4 nM and 26.4 nM.
For “GAAUUUAUAUGAAGGAGCGUCGAAAAUGGGUAAACAUGAGGAUCACCCAUGUAAAGGGAACGACAGGUAGGUCGCAUAUGGAUUC [AstromonsSSArgB#26]”, the “apparent KD of MS2 coat protein” value runs as follows: (input ligand: arginine 13.2 mM) 114 nM; (input ligand: none) 175 nM; under setting [1], 196 nM; under setting [2], 219 nM; under setting [3], 197 nM.
